The assay deals with T1, human VWF-A2 fragment.
T1 chain: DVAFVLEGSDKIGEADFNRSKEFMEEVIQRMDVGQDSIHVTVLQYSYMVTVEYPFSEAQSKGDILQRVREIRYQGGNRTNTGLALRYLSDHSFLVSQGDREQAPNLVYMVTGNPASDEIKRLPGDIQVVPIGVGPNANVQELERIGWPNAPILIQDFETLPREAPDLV
Put plainly: microscale thermophoresis. On the set-up: unit not given beside the values. The following applies: chain shown with the change;; parent: est. 6.2e-9; read off a plot.

B1: human recombinant wild-type complement factor H, P08603 W1183R (protein)
chain: EDCNELPPRRNTEILTGSWSDQTYPEGTQAIYKCRPGYRSLGNVIMVCRKGEWVALNPLRKCQKRPCGHPGDTPFGTFTLTGGNVFEYGVKAVYTCNEGYQLLGEINYRECDTDGWTNDIPICEVVKCLPVTAPENGKIVSSAMEPDREYHFGQAVRFVCNSGYKIEGDEEMHCSDDGFWSKEKPKCVEISCKSPDVINGSPISQKIIYKENERFQYKCNMGYEYSERGDAVCTESGWRPLPSCEEKSCDNPYIPNGDYSPLRIKHRTGDEITYQCRNGFYPATRGNTAKCTSTGWIPAPRCTLKPCDYPDIKHGGLYHENMRRPYFPVAVGKYYSYYCDEHFETPSGSYWDHIHCTQDGWSPAVPCLRKCYFPYLENGYNQNYGRKFVQGKSIDVACHPGYALPKAQTTVTCMENGWSPTPRCIRVKTCSKSSIDIENGFISESQYTYALKEKAKYQCKLGYVTADGETSGSITCGKDGWSAQPTCIKSCDIPVFMNARTKNDFTWFKLNDTLDYECHDGYESNTGSTTGSIVCGYNGWSDLPICYERECELPKIDVHLVPDRKKDQYKVGEVLKFSCKPGFTIVGPNSVQCYHFGLSPDLPICKEQVQSCGPPPELLNGNVKEKTKEEYGHSEVVEYYCNPRFLMKGPNKIQCVDGEWTTLPVCIVEESTCGDIPELEHGWAQLSSPPYYYGDSVEFNCSESFTMIGHRSITCIHGVWTQLPQCVAIDKLKKCKSSNLIILEEHLKNKKEFDHNSNIRYRCRGKEGWIHTVCINGRWDPEVNCSMAQIQLCPPPPQIPNSHNMTTTLNYRDGEKVSVLCQENYLIQEGEEITCKDGRWQSIPLCVEKIPCSQPPQIEHGTINSSRSSQESYAHGTKLSYTCEGGFRISEENETTCYMGKWSSPPQCEGLPCKSPPEISHGVVAHMSDSYQYGEEVTYKCFEGFGIDGPAIAKCLGEKWSHPPSCIKTDCLSLPSFENAIPMGEKKDVYKAGEQVTYTCATYYKMDGASNVTCINSRWTGRPTCRDTSCVNPPTVQNAYIVSRQMSKYPSGERVRYQCRSPYEMFGDEEVMCLNGNWTEPPQCKDSTGKCGPPPPIDNGDITSFPLSVYAPASSVEYQCQNLYQLEGNKRITCRNGQWSEPPKCLHPCVISREIMENYNIALRRTAKQKLYSRTGESVEFVCKRGYRLSSRSHTLRTTCWDGKLEYPTCAKR
As to B1, the EC50 stood at 2.3e-09.
